According to US20210363261A1 (DRAGONFLY THERAPEUTICS, published 2021):
Where a chain is given by its changes, count along the chain named. Values belong to the binder of their own block, whether it stands above or below them.

Molecular target: T1, fibroblast activation protein (FAP) expressed on human cell lines LL86, COLO 829 and U-87 MG (human, UniProt Q12884 1-760)
T1 construct: the assays used endogenous FAP on human cell lines
Assay: flow cytometry on LL86, COLO 829 and U-87 MG cells, anti-human IgG detection, MFI fold over background
Procedure: Multi-specific binding proteins or corresponding monoclonal antibodies (mAb) having the same FAP binding site were diluted and incubated with the cells. Binding was detected using fluorophore-conjugated anti-human IgG secondary antibody. Cells were analyzed by flow cytometry and express as mean fluorescence intensity (MFI) normalized to human recombinant IgG1 stained controls to obtain fold over background (FOB) values.

binding result: binds
B1: corresponding monoclonal antibody having the same FAP binding site as FAP-multi-specific BP 4G8 (antibody, V domains shown)
VH: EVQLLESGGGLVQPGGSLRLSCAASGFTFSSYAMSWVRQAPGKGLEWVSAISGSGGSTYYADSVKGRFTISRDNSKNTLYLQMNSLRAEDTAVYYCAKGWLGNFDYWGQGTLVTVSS
VL: EIVLTQSPGTLSLSPGERATLSCRASQSVSRSYLAWYQQKPGQAPRLLIIGASTRATGIPDRFSGSGSGTDFTLTISRLEPEDFAVYYCQQGQVIPPTFGQGTKVEIK
notes: also called FAP-mAb; anti-FAP mAb

binding result: binds
B2: corresponding monoclonal antibody having the same FAP binding site as FAP-multi-specific BP 29B11 (antibody, V domains shown)
VH: EVQLLESGGGLVQPGGSLRLSCAASGFTFSSYAMSWVRQAPGKGLEWVSAIIGSGGITYYADSVKGRFTISRDNSKNTLYLQMNSLRAEDTAVYYCAKGWFGGFNYWGQGTLVTVSS
VL: B1 VL with S30T, R31S, I50N, G51V, A52G, T54R, Q93I, V94M, I95L
notes: as for B1

binding result: binds
B3: corresponding monoclonal antibody having the same FAP binding site as FAP-multi-specific BP Sibrotuzumab (antibody, V domains shown)
VH: QVQLVQSGAEVKKPGASVKVSCKTSRYTFTEYTIHWVRQAPGQRLEWIGGINPNNGIPNYNQKFKGRVTITVDTSASTAYMELSSLRSEDTAVYYCARRRIAYGYDEGHAMDYWGQGTLVTVSS
VL: DIVMTQSPDSLAVSLGERATINCKSSQSLLYSRNQKNYLAWYQQKPGQPPKLLIFWASTRESGVPDRFSGSGFGTDFTLTISSLQAEDVAVYYCQQYFSYPLTFGQGTKVEIK
notes: as for B1
